Results published in patent EP4674954A1.

Assays:
[1] = molecular target: mbIL-7-1 (CD52 signal peptide-IL-7-linker 1-BCMA extracellular domain-CD52); assay: flow cytometry, share of stained cells; TIL sample T001-1 electroporated with mbIL-7-1
[2] = molecular target: mbIL-7-2 (CD52 signal peptide-IL-7-linker 2-BCMA extracellular domain-CD52); assay: flow cytometry, share of stained cells; TIL sample T002-2 electroporated with mbIL-7-2
[3] = molecular target: mbIL-7-2 (CD52 signal peptide-IL-7-linker 2-BCMA extracellular domain-CD52); assay: flow cytometry, share of stained cells; TIL sample T003-2 electroporated with mbIL-7-2
[4] = molecular target: mbIL-7-7 (CD52 signal peptide-IL-7-linker 2-BCMA extracellular domain-CD8 transmembrane domain); assay: flow cytometry, share of stained cells; TIL sample T003-7 electroporated with mbIL-7-7
[5] = molecular target: mbIL-7-1 (CD52 signal peptide-IL-7-linker 1-BCMA extracellular domain-CD52); assay: flow cytometry, share of stained cells; TIL sample T004-1 electroporated with mbIL-7-1
[6] = molecular target: mbIL-7-3 (CD52 signal peptide-IL-7-linker 4-point-mutated BCMA extracellular domain-CD52); assay: flow cytometry, share of stained cells; TIL sample T005-3 electroporated with mbIL-7-3
[7] = molecular target: mbIL-7-5 (CD52 signal peptide-IL-7-point mutation BCMA extracellular domain-linker 4-CD52); assay: flow cytometry, share of stained cells; TIL sample T006-5 electroporated with mbIL-7-5
[8] = molecular target: mbIL-7-6 (CD52 signal peptide-IL-7-linker 3-BCMA extracellular domain-CD52); assay: flow cytometry, share of stained cells; TIL sample T007-6 electroporated with mbIL-7-6
[9] = molecular target: mbIL-7-8 (IL-7 signal peptide-IL-7-linker 2-truncated BCMA extracellular domain-CD52); assay: flow cytometry, share of stained cells; TIL sample T008-8 electroporated with mbIL-7-8
[10] = molecular target: mbIL-7-3 (CD52 signal peptide-IL-7-linker 4-point-mutated BCMA extracellular domain-CD52); assay: flow cytometry, share of stained cells; TIL sample T009-3 electroporated with mbIL-7-3
[11] = molecular target: mbIL-7-4 (CD52 signal peptide-IL-7-linker 5-truncated point-mutated BCMA extracellular domain-CD8 extracellular hinge region-CD52); assay: flow cytometry, share of stained cells; TIL sample T010-4 electroporated with mbIL-7-4
[12] = molecular target: mbIL-7-9 (CD52 signal peptide-IL-7-linker 5-truncated point-mutated BCMA extracellular domain-CD52); assay: flow cytometry, share of stained cells; TIL sample T011-9 electroporated with mbIL-7-9
[13] = molecular target: mbIL-7-9 (CD52 signal peptide-IL-7-linker 5-truncated point-mutated BCMA extracellular domain-CD52); assay: flow cytometry, share of stained cells; TIL sample T012-9 electroporated with mbIL-7-9
[14] = molecular target: mbIL-7-9 (CD52 signal peptide-IL-7-linker 5-truncated point-mutated BCMA extracellular domain-CD52); assay: flow cytometry, share of stained cells; TIL sample T013-9 electroporated with mbIL-7-9
[15] = molecular target: mbIL-7-9 (CD52 signal peptide-IL-7-linker 5-truncated point-mutated BCMA extracellular domain-CD52); assay: flow cytometry, share of stained cells; TIL sample T014-9 electroporated with mbIL-7-9

Sequence of mbIL-7-9 (CD52 signal peptide-IL-7-linker 5-truncated point-mutated BCMA extracellular domain-CD52) (chain, as listed by the source limits assumed, change not shown): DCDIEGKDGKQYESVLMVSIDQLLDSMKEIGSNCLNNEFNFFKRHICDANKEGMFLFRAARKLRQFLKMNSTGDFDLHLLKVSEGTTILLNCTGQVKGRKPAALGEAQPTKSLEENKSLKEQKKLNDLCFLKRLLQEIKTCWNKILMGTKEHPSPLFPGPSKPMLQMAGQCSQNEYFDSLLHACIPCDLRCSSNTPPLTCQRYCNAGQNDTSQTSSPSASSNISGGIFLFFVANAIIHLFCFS
Sequence of mbIL-7-2 (CD52 signal peptide-IL-7-linker 2-BCMA extracellular domain-CD52) (chain, as listed by the source limits assumed): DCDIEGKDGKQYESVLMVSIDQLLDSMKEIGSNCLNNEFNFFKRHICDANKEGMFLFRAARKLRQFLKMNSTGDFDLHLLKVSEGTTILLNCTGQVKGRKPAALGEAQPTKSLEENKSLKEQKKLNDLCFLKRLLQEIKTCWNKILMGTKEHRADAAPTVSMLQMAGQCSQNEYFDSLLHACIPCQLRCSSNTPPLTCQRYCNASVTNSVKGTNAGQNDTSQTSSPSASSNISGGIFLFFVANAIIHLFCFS
Sequence of mbIL-7-3 (CD52 signal peptide-IL-7-linker 4-point-mutated BCMA extracellular domain-CD52) (chain, as listed by the source limits assumed, change not shown): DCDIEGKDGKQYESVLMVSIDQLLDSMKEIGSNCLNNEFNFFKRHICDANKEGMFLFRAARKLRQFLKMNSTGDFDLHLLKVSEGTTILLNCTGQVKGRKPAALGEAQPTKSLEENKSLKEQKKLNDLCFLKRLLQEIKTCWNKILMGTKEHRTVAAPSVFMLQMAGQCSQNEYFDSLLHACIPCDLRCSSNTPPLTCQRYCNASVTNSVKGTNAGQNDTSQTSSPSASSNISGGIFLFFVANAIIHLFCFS
Sequence of mbIL-7-1 (CD52 signal peptide-IL-7-linker 1-BCMA extracellular domain-CD52) (chain, as listed by the source limits assumed): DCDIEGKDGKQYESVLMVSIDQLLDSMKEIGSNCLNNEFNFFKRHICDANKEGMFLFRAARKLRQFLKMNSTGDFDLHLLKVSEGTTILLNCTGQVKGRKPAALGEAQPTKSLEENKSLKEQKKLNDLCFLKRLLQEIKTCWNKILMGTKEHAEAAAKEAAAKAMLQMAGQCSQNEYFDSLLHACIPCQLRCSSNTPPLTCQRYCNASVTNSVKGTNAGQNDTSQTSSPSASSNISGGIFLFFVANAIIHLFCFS
Sequence of mbIL-7-4 (CD52 signal peptide-IL-7-linker 5-truncated point-mutated BCMA extracellular domain-CD8 extracellular hinge region-CD52) (chain, as listed by the source limits assumed, change not shown): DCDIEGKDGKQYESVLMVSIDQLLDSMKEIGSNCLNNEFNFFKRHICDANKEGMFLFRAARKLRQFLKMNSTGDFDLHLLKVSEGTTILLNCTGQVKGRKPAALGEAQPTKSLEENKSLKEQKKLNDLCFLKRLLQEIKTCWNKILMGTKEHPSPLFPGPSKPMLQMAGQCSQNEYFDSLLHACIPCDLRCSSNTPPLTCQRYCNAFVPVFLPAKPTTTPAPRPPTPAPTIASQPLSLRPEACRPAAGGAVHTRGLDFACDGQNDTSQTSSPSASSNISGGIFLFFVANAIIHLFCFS
Sequence of mbIL-7-5 (CD52 signal peptide-IL-7-point mutation BCMA extracellular domain-linker 4-CD52) (chain, as listed by the source limits assumed, change not shown): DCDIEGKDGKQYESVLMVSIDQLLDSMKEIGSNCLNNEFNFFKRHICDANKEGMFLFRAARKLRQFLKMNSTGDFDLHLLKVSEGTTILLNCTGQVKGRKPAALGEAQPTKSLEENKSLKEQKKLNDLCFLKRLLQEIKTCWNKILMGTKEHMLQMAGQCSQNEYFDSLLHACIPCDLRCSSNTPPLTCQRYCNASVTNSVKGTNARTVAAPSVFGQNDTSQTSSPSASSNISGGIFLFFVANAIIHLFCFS
Sequence of mbIL-7-7 (CD52 signal peptide-IL-7-linker 2-BCMA extracellular domain-CD8 transmembrane domain) (chain, as listed by the source limits assumed): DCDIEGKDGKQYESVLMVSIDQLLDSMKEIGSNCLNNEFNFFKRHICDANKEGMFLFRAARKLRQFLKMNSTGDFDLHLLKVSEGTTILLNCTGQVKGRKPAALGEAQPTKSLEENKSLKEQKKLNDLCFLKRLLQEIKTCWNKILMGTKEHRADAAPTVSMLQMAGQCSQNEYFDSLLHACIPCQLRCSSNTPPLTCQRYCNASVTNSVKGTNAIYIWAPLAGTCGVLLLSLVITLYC
Sequence of mbIL-7-6 (CD52 signal peptide-IL-7-linker 3-BCMA extracellular domain-CD52) (chain, as listed by the source limits assumed): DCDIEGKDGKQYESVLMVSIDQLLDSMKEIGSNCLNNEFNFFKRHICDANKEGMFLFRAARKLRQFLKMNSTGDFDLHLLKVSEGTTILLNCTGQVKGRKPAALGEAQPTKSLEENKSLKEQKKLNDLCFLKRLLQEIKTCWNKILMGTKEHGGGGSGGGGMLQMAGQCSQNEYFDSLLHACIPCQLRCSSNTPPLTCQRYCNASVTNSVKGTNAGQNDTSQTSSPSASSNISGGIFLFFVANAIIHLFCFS
Sequence of mbIL-7-8 (IL-7 signal peptide-IL-7-linker 2-truncated BCMA extracellular domain-CD52) (chain, as listed by the source limits assumed): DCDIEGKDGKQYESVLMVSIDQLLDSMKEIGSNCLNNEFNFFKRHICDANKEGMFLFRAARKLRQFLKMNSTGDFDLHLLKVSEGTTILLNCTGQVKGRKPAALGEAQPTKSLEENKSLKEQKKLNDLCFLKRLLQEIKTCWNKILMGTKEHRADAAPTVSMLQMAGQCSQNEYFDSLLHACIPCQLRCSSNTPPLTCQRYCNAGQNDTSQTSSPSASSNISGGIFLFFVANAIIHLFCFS

Question: What does the source list for “BCMA flow antibody (purchased from Biolegend, catalog number 357504)”?
Answer: Positive rate (%) [1]: 49.3%; Positive rate (%) [2]: 45.4%; Positive rate (%) [3]: 51.2%; Positive rate (%) [4]: 15.1%; Positive rate (%) [5]: 40.2%; Positive rate (%) [6]: 54.1%; Positive rate (%) [7]: 44.7%; Positive rate (%) [8]: 12.3%; Positive rate (%) [9]: 42.5%; Positive rate (%) [10]: 52%; Positive rate (%) [11]: 43.8%; Positive rate (%) [12]: 47.6%; Positive rate (%) [13]: 50.1%; Positive rate (%) [14]: 45.9%; Positive rate (%) [15]: 41.1%
